{
  "source": "paper PMC2258145",
  "about": "“Transcriptional Regulation of PIK3CA Oncogene by NF-κB in Ovarian Cancer Microenvironment”",
  "binders": {"B1": {"name": "wt huPIK3CA NF-kB probe (dsDNA)", "DNA 1": "GACGTGGGGGATTTTTCGCGTA", "DNA 2": "TACGCGAAAAATCCCCCACGTC"}},
  "target": "NF-kB p50 (recombinant, Promega) (UniProt P19838 1-433)",
  "sequence (P19838 1-433)": "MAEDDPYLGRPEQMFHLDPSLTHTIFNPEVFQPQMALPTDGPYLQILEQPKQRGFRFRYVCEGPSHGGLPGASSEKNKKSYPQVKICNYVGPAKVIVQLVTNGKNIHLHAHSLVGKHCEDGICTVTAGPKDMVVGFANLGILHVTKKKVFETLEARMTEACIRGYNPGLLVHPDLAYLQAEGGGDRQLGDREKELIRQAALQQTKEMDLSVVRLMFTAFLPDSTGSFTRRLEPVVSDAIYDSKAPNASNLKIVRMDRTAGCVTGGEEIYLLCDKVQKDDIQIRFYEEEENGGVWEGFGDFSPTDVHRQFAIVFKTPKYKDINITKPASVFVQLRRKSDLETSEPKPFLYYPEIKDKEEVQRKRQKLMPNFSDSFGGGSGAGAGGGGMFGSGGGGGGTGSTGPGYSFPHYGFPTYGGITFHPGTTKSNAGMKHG",
  "test": "EMSA; LightShift EMSA kit binding buffer, 1 ug poly(dI-dC), 30 fmol biotin probe, 20 ul, room temperature 20 min; 7.5% PAGE in 0.25x TBE; salt and pH not stated",
  "settings": "protein: commercial; chain copies: 2; label: 5'-biotin; blunt",
  "data": [
    {"binder": "B1", "values": [
      {"measurement": "binding result", "result": "binds"}
    ]}
  ]
}
